Measured values taken from paper PMC12057046, “Elucidation of short linear motif-based interactions of the MIT and rhodanese domains of the ubiquitin-specific protease 8” (Biology Direct, 2025).

B1: TET3 peptide 1705-1720 (methylcytosine dioxygenase TET3), 16-mer library wild type / USP8 rhodanese domain (ubiquitin carboxyl-terminal hydrolase 8, residues 174-317) (parent)
chain 1: GLALWEAKMKQLAERA
chain 2: KCETKEKGAITAKELYTMMTDKNISLIIMDARRMQDYQDSCILHSLSVPEEAISPGVTASWIEAHLPDDSKDTWKKRGNVEYVVLLDWFSSAKDLQIGTTLRSLKDALFKWESKTVLRNEPLVLEGGYENWLLCYPQYTTNAKV

Variants of: B1
Assay: peptide-phage display deep mutational scan (M13, 16-mer library, displayed with a C-terminal GGGSG linker encoded by the 3' flank) selected against the GST-tagged USP8 rhodanese domain, four rounds; NGS counts summed over selection …
Settings: with USP8 rhodanese domain (ubiquitin carboxyl-terminal hydrolase 8, residues 174-317), 10 µg GST-bait on MaxiSorp, pre-cleared on GST, 2 h at 4 °C, five washes with 0.05% Tween 20 in PBS, not graded, scale: average over two replicas of the peptide's fractional NGS count

Screen value: each site, then its substitutions
chain 1 E6: H 3.9e-05 | F 8.66e-06 | A 8.66e-06 | V 1.15e-05 | D 9.38e-05 | S 0.000221 | G 0.000196 | Y 1.15e-05
chain 1 A13: G 0.0144 | M 5.89e-05 | D 2.6e-05 | P 5.48e-05 | V 0.0163 | N 0.000273 | E 0.0925 | T 3.6e-05 | Q 0.00219 | I 1.3e-05 | L 0.000154 | Y 2.45e-05 | K 2.6e-05 | H 0.0027
chain 1 Q11: G 0.000837 | A 3.6e-05 | D 0.00724 | H 0.000267 | F 4.33e-06 | I 8.66e-06
chain 1 M9: V 1.3e-05 | I 4.74e-05 | Y 3.9e-05 | T 0.000181 | H 3.75e-05 | A 0.00064 | L 4.33e-06 | Q 3.16e-05 | F 1.3e-05 | S 0.0119 | N 1.73e-05 | W 0.00223 | R 0.000108 | P 2.45e-05
chain 1 E14: T 8.66e-06 | W 4.33e-06 | V 0.000238 | N 6.5e-05 | D 2.73e-05 | S 7.32e-05 | F 0.000199 | M 0.000615 | A 4.18e-05 | Y 2.3e-05 | I 4.33e-06 | Q 4.03e-05 | G 0.000341 | L 0.000367
chain 1 L2: P 4.33e-06 | V 0.00764 | M 0.000603 | K 1.3e-05 | S 1.15e-05 | F 4.18e-05 | W 0.000401 | H 2.73e-05 | A 4.33e-06 | R 4.33e-06 | I 0.00377 | T 4.33e-06 | Y 1.73e-05
chain 1 A16: D 0.027 | H 2.3e-05 | R 8.66e-06 | S 0.00296 | M 0.000143 | L 6.61e-05 | V 0.00901 | Y 1.58e-05 | Q 0.00138 | P 0.0179 | I 0.00523 | F 4.33e-06 | N 0.00504 | E 0.00115 | T 0.00395 | G 6.5e-05
chain 1 L4: G 2.3e-05 | R 0.000374 | S 4.74e-05 | V 0.00974 | M 0.0286 | A 9.18e-05 | T 0.000596 | D 4.33e-06 | E 9.1e-05 | I 0.211 | H 1.3e-05 | K 4.33e-06 | P 4.33e-06 | N 0.00113 | F 0.000225 | Q 0.00044
chain 1 A7: V 5.18e-05 | S 2.3e-05 | T 0.000404 | Q 0.00623 | N 0.000194 | H 0.00234 | I 3.9e-05 | E 8.66e-06 | Y 2.3e-05 | L 4.33e-06 | P 5.46e-05 | F 4.33e-06 | W 0.0002 | R 4.33e-06 | G 7.04e-05 | M 0.000234
chain 1 A3: L 4.33e-06 | G 3.88e-05 | I 4.33e-06 | W 9.64e-05 | D 0.0209 | M 0.00023 | Q 0.00817 | E 0.064 | K 1.3e-05 | V 0.000173 | F 4.33e-06 | P 0.000452 | H 8.66e-06 | Y 0.000177 | S 0.000145 | T 5.18e-05
chain 1 K10: P 8.66e-06 | G 0.00596 | T 0.00016 | L 0.000183 | I 0.00024 | H 0.0117 | V 0.00689 | E 0.0209 | A 0.0149 | Q 0.000152 | Y 0.000154 | F 8.06e-05 | S 0.0345 | M 1.15e-05 | D 0.000192 | R 0.00248 | W 0.00214 | N 0.0933
chain 1 G1: R 4.33e-06 | N 4.46e-05 | K 2.01e-05 | Q 8.66e-06 | E 6.35e-05
chain 1 L12: R 1.15e-05 | S 4.33e-06 | F 8.66e-06 | A 1.15e-05 | I 4.33e-06 | K 4.33e-06 | M 4.33e-06
chain 1 K8: Q 4.33e-06 | E 4.33e-06 | N 2.3e-05 | P 1.73e-05
